Measured values as given in patent publication US20250258178A1 (SHIONOGI, published 2025).

Experiments:
[1] = molecular target: T1, human histidine-rich glycoprotein (HRG), purified from human plasma (human, UniProt P04196 19-525); assay: sandwich ELISA, HRG captured by solid phase 42-10D
T1 construct: also called human purified HRG; human purified HRG protein
T1 sequence: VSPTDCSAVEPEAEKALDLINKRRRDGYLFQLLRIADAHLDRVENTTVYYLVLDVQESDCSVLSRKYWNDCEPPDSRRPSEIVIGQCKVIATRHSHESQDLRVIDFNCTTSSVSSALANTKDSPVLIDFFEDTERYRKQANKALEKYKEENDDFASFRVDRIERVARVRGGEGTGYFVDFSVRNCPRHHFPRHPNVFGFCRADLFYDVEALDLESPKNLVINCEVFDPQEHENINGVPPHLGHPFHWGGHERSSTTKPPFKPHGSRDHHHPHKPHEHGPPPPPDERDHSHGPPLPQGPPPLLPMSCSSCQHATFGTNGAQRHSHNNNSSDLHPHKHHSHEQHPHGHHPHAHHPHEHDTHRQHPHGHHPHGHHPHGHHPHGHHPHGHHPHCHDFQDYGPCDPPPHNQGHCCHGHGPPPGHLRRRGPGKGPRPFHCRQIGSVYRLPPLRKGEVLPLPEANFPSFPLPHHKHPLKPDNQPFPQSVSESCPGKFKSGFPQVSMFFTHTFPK
Description: (§1) The capture antibody solution was dispensed at 25 μL per well into 384-well Maxisorp plates (NUNC), and the plates were incubated at room temperature for 3 hours. The plates were washed twice with 120 μL of washing solution per well (0.05% Tween 20-containing PBS). A blocking solution (1% BSA-containing PBS) was dispensed at 30 μL per well, and the plates were incubated at room temperature for 3 hours. The blocking solution was removed followed by dispensing the standard substance for evaluation at 20 μL per well (n=2), and the plates were incubated at room temperature for 3 hours. After washing the plates four times with the washing solution as described above, the solution of each detector antibody was dispensed at 10 μL per well, followed by dispensing a horseradish peroxidase-streptavidin solution (0.05 μg/mL) at 10 μL per well, and the plates were incubated at room temperature for 1 hour. After washing the plates four times with the washing solution as described above, a chromogenic substrate solution (TMB (3,3′,5,5′-tetramethylbenzidine)) was dispensed at 20 μL per well followed by incubating the plates at room temperature for 10 minutes, then a reaction stop solution 0.5 M H₂SO₄ was added at 20 μL/well, and the absorbance at 450 nm was measured.
(§2) The results regarding the evaluation of combinations chosen from 21 types of anti-HRG monoclonal antibodies are shown in Table 1. In Table 1, the absorbance at a wavelength of 450 nm of each combination was determined as follows: less than 1.0 OD: −, 1.0 OD or more and less than 2.0 OD: +, 2.0 OD or more and less than 3.0 OD: ++, and 3.0 OD or more: +++. The combinations of antibodies which could construct a sandwich ELISA system having enough level of absorbance change were 86 sets evaluated as ++ or +++ in Table 1.

[2] = molecular target: T1, human histidine-rich glycoprotein …; assay: sandwich ELISA, HRG captured by solid phase 14-6F
Description: as §1, §2

[3] = molecular target: T1, human histidine-rich glycoprotein …; assay: sandwich ELISA, HRG captured by solid phase 40-10G
Description: as §1, §2

[4] = molecular target: T1, human histidine-rich glycoprotein …; assay: sandwich ELISA, HRG captured by solid phase 58-5C
Description: as §1, §2

[5] = molecular target: T1, human histidine-rich glycoprotein …; assay: sandwich ELISA, HRG captured by solid phase 75-2D
Description: as §1, §2

B1: anti-HRG monoclonal antibody 69-1A (antibody, V domains shown)
VH: EVKLEESGGGLVQPGGSMKLSCAASGFTFSDAWMDWVRQSPEKGLEWVAEIRSKANNHGTYYAESVKGRFTISRDDSKSSVYLRMNSLSAEDTGIYYCTRPFAYWGQGTLVTVSA
VL: DVVVTQTPLSLPVSLGDQASISCRSSQSLVHIDGNTYFHWYVQKPGQSPKLLIYKVSNRFSGVPDRFSGSGSGTDFTLKISRVEAEDLGVYFCSQSTHVPLTFGAGTKLELK
notes: Mouse hybridoma monoclonal; also called clone No. 69-1A
absorbance at 450 nm [1]: < 1 OD | absorbance at 450 nm (OD450) [2]: 1 to 2 od | absorbance at 450 nm (OD450) [3]: 1 to 2 od | absorbance at 450 nm (OD450) [4]: 1 to 2 od | absorbance at 450 nm (OD450) [5]: 2 to 3 od
